Target: T1, HIV-1 Env glycoprotein complex (gp120/gp41) with full-length gp41, on HIV-1 particles of proviral clone R9 … (HIV-1 group M subtype B, proviral clone …)
T1 construct: also called WT; wild-type HIV-1; copies: 3 + 3
Experiment: immunofluorescence imaging of antibody binding to single immobilised virions; IMMATURE, protease-defective particles (R9.PR- or R9Tr712.PR-) with GFP-Vpr on poly-D-lysine coated dishes; unfixed virions incubated with IgG or CD4-IgG2 (0.25 µg/mL) for 2 h at room temperature, fixed in 2% paraformaldehyde, Cy5 anti-human IgG, confocal microscopy; median average Cy5 intensity per GFP-positive particle; CD4-IgG2 results …
Settings: one partner purified

B1: HIV-1 gp41 mAb 4E10 (full-length IgG) (antibody, V domains shown)
VH: QVQLVQSGAEVKRPGSSVTVSCKASGGSFSTYALSWVRQAPGRGLEWMGGVIPLLTITNYAPRFQGRITITADRSTSTAYLELNSLRPEDTAVYYCAREGTTGWGWLGKPIGAFAHWGQGTLVTVSS
VL: EIVLTQSPGTQSLSPGERATLSCRASQSVGNNKLAWYQQRPGQAPRLLIYGASSRPSGVADRFSGSGSGTDFTLTISRLEPEDFAVYYCQQYGQSLSTFGQGTKVEVK
notes: copies: 2 + 2
fold increase in binding to immature over mature virions, particles with an average intensity above 50 a.u.: 6 fold
median average intensity per particle, PR- image over wild-type image: 1.4 fold
